B1: DVD151: DVD-Ig construct listed in Table 4 (antibody)
VH: EVQLVQSGAEVKKPGASVKVSCKASGYTFTKYWLGWVRQAPGQGLEWMGDIYPGYDYTHYNEKFKDRVTLTTDTSTSTAYMELRSLRSDDTAVYYCARSDGSSTYWGQGTLVTVSSASTKGPEVQLQESGPGLVRPSQTLSLTCTVSGYSITSDHAWSWVRQPPGRGLEWIGYISYSGITTYNPSLKSRVTMLRDTSKNQFSLRLSSVTAADTAVYYCARSLARTTAMDYWGQGSLVTVSS
VL: DVLMTQTPLSLPVTPGEPASISCTSSQNIVHSNGNTYLEWYLQKPGQSPQLLIYKVSNRFSGVPDRFSGSGSGTDFTLKISRVEAEDVGVYYCFQVSHVPYTFGGGTKVEIKRTVAAPDIQMTQSPSSLSASVGDRVTITCRASQDISSYLNWYQQKPGKAPKLLIYYTSRLHSGVPSRFSGSGSGTDFTFTISSLQPEDIATYYCQQGNTLPYTFGQGTKVEIKR
B2: 8C11: murine anti-mouse TNFα monoclonal antibody clone (antibody, V domains shown)
VH: EFQLQQSGPELVKPGASVRISCKASGYSFTDYNMNWVKQSNGKSLEWVGVINPNYGSSTYNQKFKGKATLTVDQSSSTAYMQLNSLTSEDSAVYYCARKWGQLGRGFFDVWGTGTTVTVSS
VL: QIVLSQSPAILSASPGEKVTMTCRASSSVSYMHWFQQKPGSSPKPWIYATSNLASGVPARFSGSGSGTSYSLTISRVEAEDAATYYCQQWSSSPLTFGAGTKLELKR

Experiments:
[1] = test system: PGE2 / human EP4 receptor in HEK293 Gα16 cells; assay: EP4 bioassay (Ca++ flux, neutralization of PGE2); assay type: cell-based; settings: PGE2 VD in N-terminal position; EP4 bioassay, Ca++ flux; read-out: N-terminal VD PGE2 Neutralization EC50
Description: The ability of anti-PGE2 antibodies and anti-PGE2 containing DVD-Ig molecules to inhibit the cellular response of PGE2 was determined in a Ca++ flux assay in HEK293 Gα16 cells stably transfected with human EP4 receptor. Cells were plated in black/clear poly-D-lysine plates, (Corning #3667, Corning, N.Y.) and incubated with Ca++-sensitive dye (Molecular Devices) for 90 minutes. Stock PGE2 (in 200 proof ethanol) was diluted with FLIPR buffer (containing 1×HBSS (Invitrogen, Carlsbad, Calif.), 20 mM HEPES (Invitrogen, Carlsbad, Calif.), 0.1% BSA (Sigma, St. Louis, Mo.) and 2.5 mM Probenecid (Sigma, St. Louis, Mo.)). Anti-PGE2 antibodies, DVD-Ig molecules or isotype matched control antibodies were also pre-diluted in FLIPR buffer. 25 μl of PGE2 or pre-incubated PGE2/antibody mixture or pre-incubated PGE2/DVD-Ig molecule mixture was added to the wells pre-plated with cells. A dose response of PGE2 was done by a serial titration of PGE2 and was determined using FLIPR1 or Tetra (Molecular Devices). EC50 was determined using GraphPad Prism 5 (GraftPad Software, La Jolla, Calif.). […] Ca++ flux was monitored using FLIPR1 and data was analyzed using GraphPad Prism 5.
The ability of anti-PGE2 antibodies and anti-PGE2 containing DVD-Ig molecules to inhibit the cellular response of PGE2 was determined in a Ca++ flux assay using stably transfected human EP4 in HEK293 Gα16 cells. Cells were plated in black/clear Poly-D-Lysine plates, (Corning #3667) and incubated with Ca++-sensitive dye (Molecular Devices) for 90 minutes. Stock PGE2 (in 200 proof ethanol) was diluted with FLIPR buffer (containing 1×HBSS, 20 mM HEPES, 0.1% BSA and 2.5 mM Probenecid). Anti-PGE2 antibodies, DVD-Ig molecules or isotype matched control antibodies were also pre-diluted in FLIPR buffer. 25 μl of PGE2 or pre-incubated PGE2/antibody mixture or pre-incubated PGE2/DVD-Ig molecule mixture was added to the wells pre-plated with cells. A dose response of PGE2 was done by a serial titration of PGE2 and was determined using FLIPR1 or Tetra (Molecular Devices). EC50 was determined using GraphPad Prism 5. […] Ca++ flux was monitored using FLIPR1 and data was analyzed using GraphPad Prism 5.

[2] = PGE2-biotinamide ELISA (PGE2 binding); settings: PGE2 VD in N-terminal position, read-out: Direct Bind ELISA N-terminal VD EC50
Description: (§1) Enzyme linked immunosorbent assays to screen for anti-PGE2 antibodies or anti-PGE2 containing DVD-Ig molecules that bind prostaglandin E2 were performed as follows. ELISA plates (Costar 3369, Corning, N.Y.) were coated with 50 μl of anti-host Fc IgG (Sigma, St. Louis, Mo.) at 2 μg/ml in PBS (Invitrogen Carlsbad, Calif.). Following an overnight incubation at 4° C., the plate was blocked with 200 μl Superblock (Pierce #37535, Rockford, Ill.). The IgG or DVD-Ig containing samples were diluted to 1 μg/ml in Assay Buffer (10% Superblock in PBS containing 0.05% Surfactamps (Pierce #37535, Rockford, Ill.) and incubated on the plate at 50 μl/well for 1 hour at room temperature. Following the incubation, plates were washed four times with TTBS (Tween-Tris Buffered Solution). For PGE2 binding, PGE2-biotinamide (Cayman Chemicals, Ann Arbor, Mich.) was diluted to 30 nM and serially diluted in Assay Buffer. The titration curve was added to each IgG or DVD-Ig sample at a volume of 50 μl/well and incubated for 1 hour at room temperature. The plates were washed as previously described and 50 μl/well of 1:5000 dilution of streptavidin polyhrp40 (Fitzgerald Industries, Concord, Mass.) in Assay Buffer was added and incubated for 45 minutes at room temperature. A final wash step was performed and the plates were developed using a single step TMB system (Sigma #T8665, St. Louis, Mo.) and 2N H2SO4. Plates were read at 450 nm on a Molecular Devices Spectramax plate reader (Sunnyvale, Calif.). EC50 was determined using GraphPad Prism 5 (GraphPad Software, La Jolla, Calif.) (FIG. 2).
as §1, with “ELISA” for “Enzyme linked immunosorbent assays to screen for anti-PGE2 antibodies or anti-PGE2 containing DVD-Ig molecules that bind prostaglandin E2 were performed as follows. ELISA”, “(Invitrogen,” for “(Invitrogen”, “IgG” for “IgG or DVD-Ig”, “Solution).” for “Solution). For PGE2 binding,”, “Calif.).” for “Calif.) (FIG. 2).”

[3] = Size exclusion chromatography, percent monomer of parent antibodies and DVD-Ig constructs; assay type: physicochemical
Description: Antibodies were diluted to 2.5 mg/mL with water and […] is analyzed on a Shimadzu HPLC system using a TSK gel G3000 SWXL column (Tosoh Bioscience, cat#k5539-05k). […] The HPLC system operating conditions are the following: […]

[4] = test system: stable cell lines overexpressing a cell-surface antigen of interest or human tumor cell lines; assay: Flow cytometry (FACS) binding to cell surface antigen; assay type: cell-based; settings: IL-6R VD in C-terminal position; 2 μg/mL
Description: Stable cell lines overexpressing cell-surface antigen of interest or human tumor cell lines were harvested from tissue culture flasks and resuspended in phosphate buffered saline (PBS) containing 5% fetal calf serum (PBS/FCS). Prior to staining, human tumor cells were incubated on ice with human IgG at 200 μg/ml in PBS/FCS. 1-5×10^5 cells were incubated with antibody or DVD-Ig (1-2 μg/mL) in PBS/FCS for 30-60 minutes on ice. […] After 30 minutes incubation on ice, cells were washed twice and resuspended in PBS/FCS. Fluorescence was measured using a Becton Dickinson FACSCalibur (Becton Dickinson, San Jose, Calif.).
Stable cell lines overexpressing a cell-surface antigen of interest or human tumor cell lines were harvested from tissue culture flasks and resuspended in phosphate buffered saline (PBS) containing 5% fetal bovine serum (PBS/FBS). Prior to staining, human tumor cells were incubated on ice with (100 μl) human IgG at 5 μg/ml in PBS/FCS. 1-5×10^5 cells were incubated with antibody or DVD-Ig (2 μg/mL) in PBS/FBS for 30-60 minutes on ice. […] After 30 minutes incubation on ice, cells were washed twice and resuspended in PBS/FBS. Fluorescence was measured using a Becton Dickinson FACSCalibur (Becton Dickinson, San Jose, Calif.).
The geometric mean is the n root of the multiplication product of n fluorescent signals (a1×a2×a3 . . . an). […]

[5] = test system: C57BL6/N mice, LPS/D-Galactosamine-induced lethality; assay: LPS-D-galactosamine-induced lethality; assay type: in vivo, mouse; settings: 12 mg/kg IP
Description: Saline alone was used as a negative control. Another group received […] 8C11-1E10, an anti-mouse TNF monoclonal antibody, as a positive control.
At the time of challenge, the mice were injected i.p. with 500 μL dose volume of saline containing 100 ng/mouse LPS (Sigma L4130, lot 095K4056, St. Louis, Mo.) and 20 mg/mouse D-Galactosamine (Sigma G-0500, lot 048K1547, St. Louis, Mo.). The mice were then monitored for lethality twice a day for 48 hours. At 48 hours the remaining surviving mice were sacrificed and bled for plasma antibody levels.

Row | Molecule | EC50 [1] | EC50 [2] | % Monomer (purity) [3] | FACS Geometric Mean C-terminal [4] | % Survival [5] | Mean Plasma Ab Concentration [5]
1 | B1 | 0.036 nM | 1.52 nM | 92.7% | 0.21 |  | 
2 | B2 |  |  |  |  | 100% | 65 ± 4.0 µg/mL

Reference: patent US8822645B2, “Prostaglandin E2 dual variable domain immunoglobulins and uses thereof” (AbbVie Inc., priority 2008, dated 2014)
